Measurements reported in the supplement of paper PMC6757056.
± gives the standard deviation of the averaged measurements.

B1: library; a variant is named by its letters at N, in order (parent)
chain: GCUGUCACCGGUGUAUUACCCUAGUGGUCGACCGGUCUGAUGAGUCUNNNNNNAGACGAAACAGC

How the values were obtained:
[1] = variants of: B1; assay: FACS-Seq fitted mean relative fluorescence mCherry/BFP without ligand (log10 relative fluorescence); ligand: hypoxanthine (xanthine aptamer); higher = higher reporter protein expression; settings: HEK293T, ligand present: no
In short: (§1)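 HEK293T libraries were made by lentiviral transduction with a ribozyme-switch mCherry reporter and an EF1α-BFP marker, enriched, and incubated with or without ligand for 48 h. Cells were sorted into 6 mCherry/BFP bins, and each bin's genomic DNA was PCR-amplified, barcoded and run on MiSeq. Fluorescence was derived by normal fitting of the bin counts. The fitted log10(mCherry/BFP) mean was scaled to five spiked-in control ribozymes.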

[2] = variants of: B1; assay: normalized RNA/DNA level with ligand (relative to sTRSVctl = 100) (log10 (% of sTRSVctl)); ligand: hypoxanthine (xanthine aptamer); higher = less ribozyme self-cleavage, higher mRNA level; settings: ligand concentration (+) RNA-Seq: 5 mM, HEK293T, reporter: mCherry (pCS4076), ligand present: yes
Method: (§2)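 Hammerhead (sTRSV) ribozyme switch libraries with a ligand aptamer grafted on stem I and a randomized N4-6 loop II, cloned into the 3' UTR of mCherry and transiently transfected into HEK293T cells; RNA-Seq 72 h post transfection with ligand added 1 h before transfection; RNA read count / plasmid DNA read count normalized to the non-cleaving sTRSVctl (x100), log10; sequences with >100 DNA reads. FACS-Seq: lentiviral library sorted into 6 bins after 48 h ligand, log-normal fit mean of mCherry/BFP scaled to controls. Printed sequences are partial switch sequences.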

[3] = variants of: B1; assay: normalized RNA/DNA level without ligand (relative to sTRSVctl = 100) (log10 (% of sTRSVctl)); ligand: hypoxanthine (xanthine aptamer); higher = less ribozyme self-cleavage, higher mRNA level; settings: HEK293T, reporter: mCherry (pCS4076), ligand present: no
Method: as §2

[4] = variants of: B1; assay: FACS-Seq fitted mean relative fluorescence mCherry/BFP with ligand (log10 relative fluorescence); ligand: hypoxanthine (xanthine aptamer); ligand concentration (+) FACS-Seq: 5 mM; higher = higher reporter protein expression; settings: HEK293T, ligand present: yes
In short: as §1

Variant | FACS-Seq fitted mean (log10) [1] | normalized RNA/DNA level with ligand (log10) [2] | normalized RNA/DNA level without ligand (log10) [3] | FACS-Seq fitted mean (log10) [4]
AAUACG | 0.407 ± 0.1 | 1.844 ± 0.01 | 1.44 ± 0.067 | 0.609 ± 0.057
AAUACA | 0.346 ± 0.053 | 1.88 ± 0.05 | 1.801 ± 0.0096 | 0.496 ± 0.0044
AAGUUU | -0.231 ± 0.049 | 1.898 ± 0.012 | 1.87 ± 0.023 | -0.254 ± 0.013
AAGUUA | -0.098 ± 0.017 | 1.89 ± 0.02 | 1.613 ± 0.013 | 0.476 ± 0.07
AAGUUG | -0.243 ± 0.014 | 1.626 ± 0.013 | 1.12 ± 0.013 | 0.435 ± 0.052
CAUAGA | 1.171 ± 0.0012 | 1.931 ± 0.0061 | 1.767 ± 0.0051 | 0.849 ± 0.08
GAUAUG | 0.0367 ± 0.045 | 1.85 ± 0.029 | 1.39 ± 0.017 | 0.215 ± 0.097
GAUAUA | 0.804 ± 0.057 | 1.91 ± 0.034 | 1.8 ± 0.061 | 0.741 ± 0.0099
CAGUGG | 0.315 ± 0.042 | 1.9 ± 0.024 | 1.32 ± 0.043 | 0.629 ± 0.11
CAGUGU | 0.44 ± 0.086 | 1.924 ± 0.002 | 1.87 ± 0.016 | 0.795 ± 0.017
CAGUGA | 0.406 ± 0.012 | 1.89 ± 0.076 | 1.71 ± 0.057 | 0.487 ± 0.032
AAUCCG | 0.134 ± 0.0095 | 1.86 ± 0.073 | 1.423 ± 0.0043 | 0.584 ± 0.0084
AAUCCU | 0.417 ± 0.063 | 1.94 ± 0.04 | 1.887 ± 0.008 | 0.433 ± 0.13
UAUAAU | 0.434 ± 0.04 | 1.93 ± 0.021 | 1.785 ± 0.0039 | 0.588 ± 0.067
UAUAAG | 0.0362 ± 0.033 | 1.87 ± 0.034 | 1.611 ± 0.015 | 0.291 ± 0.019
GAUGGA | 0.4617 ± 0.0039 | 1.913 ± 0.0011 | 1.67 ± 0.036 | 0.698 ± 0.029
GAUGGC | 0.369 ± 0.012 | 1.89 ± 0.016 | 1.598 ± 0.0036 | 0.596 ± 0.041
GAUGGG | -0.0971 ± 0.21 | 1.81 ± 0.025 | 1.3 ± 0.053 | 0.3779 ± 0.0029
